The results in this text go back to US9090994B2.

Assay [1] addresses c-Myc-containing recombinant protein. As to the kind of experiment: SPR; fold change of KD, WT is itself the reference. On the technique in general: Surface plasmon resonance follows binding to a sensor surface in real time, without labels.
For assay [2] the target is unchanged. As to the kind of experiment: SPR (Biacore T200), c-Myc-containing recombinant protein immobilised, soluble Fab injected at 5-80 nM, 1:1 Langmuir fit.

B1: parental murine Fab of aM (murine monoclonal antibody raised against c-Myc peptide) (Fab, V domains shown)
VH: QIQLVQSGPELKKPGETVRISCKASGYTFTTAGMQWVQKMPGKGLKWIGWINTHSGVPKYAEDFKGRFAFSLETSASTAYLQMTNLNNEDTATYFCARGYGKGGYFAMDYWGQGTSVTVSS
VL: DVVMTQIPFSLPVSLGDQASISCRSSQSLVHSNGNTYLHWYVQKPGQSPKLLIYKVSNRFSGVPDRFSGSGSGTYFTLKISRVEAEDLGVYFCSQSTRVPWTFGGGTKLEIK
The Kd is the free concentration of one partner at which half of the binding sites on the other are occupied at equilibrium, for simple one-to-one binding. A word on the koff: it is the rate constant with which the complex falls apart. The term kon denotes the second-order rate constant of association. For B1, the Fold change in assay [1] came out at 1 fold. Moreover, in assay [2], the Kd amounted to 110 nM, the koff turned out to be 0.018 s⁻¹ and the on-rate (kon) was determined as 160000 M⁻¹ s⁻¹.
